Source: patent publication US20160017031A1

What was measured:
[1] = target: HLA-A2 (HLA-A*0201) class I molecule without a defined test peptide (human); assay: cell-based or functional assay
[2] = target: GVL peptide-HLA-A2 (hCG beta 47-55 peptide … in HLA-A2 with beta-2 microglobulin) (human); assay: flow cytometry, T2 cells pulsed with 50 to 0.1 µg/ml GVL peptide
[3] = target: TMT peptide-HLA-A2 (hCG beta 40-48 peptide … in HLA-A2 with beta-2 microglobulin) (human); assay: flow cytometry, TMT-pulsed T2 cells, 1 µg per stain
[4] = target: HLA-A2 (HLA-A*0201) class I molecule without a defined test peptide (human); assay: flow cytometry, unpulsed T2 cells, 1 µg per stain
[5] = target: VLQ peptide-HLA-A2 (hCG beta peptide … in HLA-A2 with beta-2 microglobulin) (human); assay: flow cytometry, VLQ-pulsed T2 cells, 1 µg per stain
[6] = target: GVL peptide-HLA-A2 (hCG beta 47-55 peptide … in HLA-A2 with beta-2 microglobulin) (human); assay: flow cytometry, GVL-pulsed T2 cells, 0.01 µg antibody
[7] = target: GVL peptide-HLA-A2 (hCG beta 47-55 peptide … in HLA-A2 with beta-2 microglobulin) (human); assay: flow cytometry, GVL-pulsed T2 cells, 1 µg per stain
[8] = target: TMT peptide-HLA-A2 (hCG beta 40-48 peptide … in HLA-A2 with beta-2 microglobulin) (human); assay: cell-based or functional assay
[9] = target: GVL peptide-HLA-A2 (hCG beta 47-55 peptide … in HLA-A2 with beta-2 microglobulin) (human); assay: cell-based or functional assay
[10] = target: GVL peptide-HLA-A2 (hCG beta 47-55 peptide … in HLA-A2 with beta-2 microglobulin) (human); assay: flow cytometry, GVL-pulsed T2 cells, 1 µg antibody

Row | CDC specific lysis of GVL-pulsed T2 cells [1] [%] | MFI [2] [MFI] | MFI [3] [MFI] | MFI [4] [MFI] | MFI [5] [MFI] | MFI [6] [MFI] | MFI [7] [MFI] | complement-dependent cytolysis (CDC) of TMT-pulsed T2 cells [8] [%] | ADCC of MDA-231 cells, human PBMC, E:T 20:1 [9] [%] | ADCC of MDA-MB-231 cells, human PBMC, E:T 30:1, 10 µg/ml 3.2G1 [9] [%] | ADCC of MDA-MB-231 cells, human PBMC, E:T 30:1, 10 µg/ml 3.2G1 (average) [9] [%] | CDC specific lysis of T2 cells pulsed with 50 to 0.1 µg/ml GVL peptide [9] [%] | GVL peptide concentration giving half-maximal CDC lysis [9] [µg/mL] | MFI [10] [MFI] | Substance
1 | 53 to 70 | 250 to 350 |  |  |  |  |  |  |  |  |  |  |  |  | BB7.2 monoclonal antibody (anti-HLA-A2)
2 |  | 10 to 150 | 7.5 | 9 | 7.3 | 14.3 | 141 | 2 | 6.4 to 13.4 | 6.8 to 9.6 | 8.7 | 6 to 73 | 6 | 388 | RL4B (antibody)
